Assay results from PMC3899335, “ParABS System in Chromosome Partitioning in the Bacterium Myxococcus xanthus”.

Target: T1, ParB (Myxococcus xanthus DK1050, UniProt Q1CVJ4 1-296)
T1 sequence: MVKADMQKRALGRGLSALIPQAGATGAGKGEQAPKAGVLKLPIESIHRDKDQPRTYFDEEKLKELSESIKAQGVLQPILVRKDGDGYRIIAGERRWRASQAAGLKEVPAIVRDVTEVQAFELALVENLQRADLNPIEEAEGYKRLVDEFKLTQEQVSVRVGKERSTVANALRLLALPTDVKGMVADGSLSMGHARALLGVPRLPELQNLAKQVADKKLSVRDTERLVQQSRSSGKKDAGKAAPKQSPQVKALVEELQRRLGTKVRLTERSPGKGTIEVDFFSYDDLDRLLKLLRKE
Assay: EMSA (polyacrylamide); single retarded band up to highest ParB; 40 mM Na-phosphate pH 8, 20 mM NaCl, 7% glycerol, 20 ug/ml BSA, 100 ug/ml sheared salmon sperm DNA, 30 C (30 min agarose, 1 h polyacrylamide); gels run at 4 C
Conditions: protein: recombinant; tags: intein-chitin tag (pTYB12) removed by on-column DTT cleavage; chain copies: 2; label: 32P 5' end; blunt

B1: parS 50 bp consensus (dsDNA)
DNA 1: ACTCACTCATGGCCTCCGTGTTCCACGTGGAACGAAGGATGACTCGAGCA
DNA 2: TGCTCGAGTCATCCTTCGTTCCACGTGGAACACGGAGGCCATGAGTGAGT
- binding result: binds
